We go through four molecules from patent publication US20160369008A1 (Astellas, published 2016).

Usually EC50 stands for the concentration giving half of the maximal effect. Usually IC50 stands for the concentration that inhibits the measured activity by half.

Experiment [1] addresses T1, human PAI-1 in complex with tPA (human, UniProt P05121 24-402; P00750 36-562).
T1 construct: tPA was coated on the plate and active PAI-1 was captured on it; also called tPA-PAI-1 complex; Human tPA-PAI-1
Briefly: ELISA, tPA-PAI-1 complex on the plate. A general note: In an ELISA, binding on a coated surface is turned into a signal by an enzyme label.

In experiment [2] the target is T2, human PAI-1 in complex with uPA (human, UniProt P05121 24-402; P00749 21-431, limits assumed).
T2 construct: uPA was coated on the plate and active PAI-1 was captured on it; also called uPA-PAI-1 complex; Human uPA-PAI-1
The experiment can be described thus: ELISA, uPA-PAI-1 complex on the plate.

A further experiment concerns the target T3, latent human PAI-1 (human, UniProt P05121 24-402).
T3 construct: Same protein as active PAI-1 but in the latent conformation; also called recombinant latent human PAI-1; latent PAI-1
Briefly: ELISA, latent human PAI-1 on the plate.

For experiment [3], the target named is T4, active human PAI-1 in complex with vitronectin (human, UniProt P05121 24-402; P04004 20-478).
T4 construct: Vitronectin was coated on the plate and active PAI-1 was captured on it; also called VTN-PAI-1 complex; VTN-PAI-1
Briefly: ELISA, VTN-PAI-1 complex on the plate; 100% set to the signal of MA56-A7C10 at its maximum concentration.

Experiment [4] deals with recombinant active human PAI-1 (human, UniProt P05121 24-402). The experiment can be described thus: cell-based or functional assay.
Experiment [5] addresses T4, active human PAI-1 in complex with …. Briefly: ELISA, VTN-PAI-1 complex on the plate. How it is done: An HRP-labeled goat anti-mouse Ig antibody (Southern Biotech, 1010-05) for the detection of a test antibody having an Fe region of a mouse antibody and an HRP-labeled rabbit anti-human Ig antibody (Southern Biotech, 6145-05) for the detection of a test antibody having an Fc region of a human antibody are used as the detection antibody. After incubation at room temperature for 30 minutes, the plates were washed three times with a washing solution. A color developing solution contained in a peroxidase color development kit (Sumitomo Bakelite Co., Ltd.) was added at 100 μL/well, followed by allowing to stand at room temperature for about 15 minutes, 100 μL of a reaction stop solution contained in the color development kit was added, and then the OD450 value was measured using an EnVision counter (PerkinElmer Co., Ltd.).
For each plate, the test of each antibody was carried out in duplicate, and the average value was calculated. In connection with the calculation of a PAI-1 binding rate at each concentration of each antibody, the measurement value of a well to which 0.1% BSA-containing PBS had been added instead of an antibody was taken to be 0%, and the measurement value of the maximum concentration in each antibody was set to 100%. […] The calculated PAI-1 binding rate was analyzed to calculate EC50 values of the antibodies by four-parameter logistic curve regression.

Experiment [6] deals with active monkey PAI-1 in complex with vitronectin (monkey). Briefly: ELISA, VTN-monkey PAI-1 complex on the plate.
Chain of active monkey PAI-1 in complex with vitronectin (monkey) (P04004 20-478, one chain of several): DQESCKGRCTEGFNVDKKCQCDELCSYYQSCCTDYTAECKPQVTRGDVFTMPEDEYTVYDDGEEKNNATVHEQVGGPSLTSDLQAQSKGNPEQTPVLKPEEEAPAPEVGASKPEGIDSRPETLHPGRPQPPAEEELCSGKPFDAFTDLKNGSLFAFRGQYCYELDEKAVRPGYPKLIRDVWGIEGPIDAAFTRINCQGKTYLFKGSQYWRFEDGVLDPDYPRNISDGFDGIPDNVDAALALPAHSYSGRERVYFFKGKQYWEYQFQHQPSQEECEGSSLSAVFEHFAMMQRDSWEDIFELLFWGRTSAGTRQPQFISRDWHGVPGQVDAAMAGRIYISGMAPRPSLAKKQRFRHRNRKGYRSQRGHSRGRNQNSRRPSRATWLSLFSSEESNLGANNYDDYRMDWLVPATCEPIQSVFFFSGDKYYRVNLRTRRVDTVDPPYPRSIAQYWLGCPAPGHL
Experiment [7] concerns the target T5, active PAI-1 in human plasma (human, UniProt P05121 24-402).
T5 construct: Native protein in diluted plasma; also called human plasma-derived active PAI-1; active human PAI-1 in the plasma
Briefly: ELISA: inhibition of the capture of active PAI-1 of human plasma on immobilised uPA. As for the experimental part:
After the blocking agent in the assay plate was removed by reverse centrifugation, the pre-incubated plasma-antibody mixtures, the calibration curve sample, and the control sample were added at 100 μL/well to the assay plate which was then allowed to stand at room temperature for 30 minutes. The plate was washed three times with a washing solution (0.05% Tween-20-containing TBS), and anti-PAI-1 antibodies (Progen Biotechnik, MA-33H1F7) diluted 3,000-fold with a blocking agent (NACALAI TESQUE, INC., 03953-95) solution which had been diluted 20-fold in PBS were added thereto at 100 μL/well. […] An alkaline phosphatase substrate (Chemiluminescent AP; SurModics, APU4-0100-01) 5-fold diluted in a 0.1 mM magnesium chloride aqueous solution containing 2 mM Tris (pH 9.8) was added at 100 μL/well, and the signal value was measured using an EnVision counter (PerkinElmer Co., Ltd.).
The concentration of active human PAI-1 was calculated using a calibration curve. The test was carried out in duplicate for each antibody, and the average value was calculated. […] The calculated active human PAI-1 inhibitory rate was analyzed to calculate IC50 values of the antibodies by four-parameter logistic curve regression.

Experiment [8] addresses T5, active PAI-1 in human plasma. The experiment can be described thus: ELISA: inhibition of the capture of active PAI-1 of human plasma on immobilised uPA (Example 9). How it is done:
(§1) The evaluation of an inhibitory activity on active PAI-1 in human plasma was carried out according to the method of Example 5. The evaluation of an inhibitory activity on active PAI-1 in monkey plasma was carried out using monkey plasma instead of human plasma in the method described in Example 5. With regard to the monkey plasma, the plasma was diluted using 0.1% BSA-containing PBS, such that the monkey plasma was diluted 120-fold when a plasma-antibody mixture was prepared. For both of two evaluation systems, the final concentration of each antibody was used in a range from 300 ng/mL to 0.3 ng/mL (7-step dilution). As a calibration curve sample, recombinant active human PAI-1 (Molecular Innovations Inc., PAI-A) was used which had been diluted in 7 steps in a range from 3000 pg/mL to 3 pg/mL with 0.1% BSA-containing PBS.
(§2) The concentration of each active PAI-1 was calculated using a calibration curve. The test was carried out in duplicate for each antibody, and the average value was calculated. […] Each of the calculated active PAI-1 inhibitory rates was analyzed to calculate IC50 values of the antibodies by four-parameter logistic curve regression.

Experiment [9] concerns the target T6, active PAI-1 in monkey plasma (cynomolgus monkey, UniProt G7P138 24-402).
T6 construct: Native protein in diluted plasma
Briefly: ELISA: inhibition of the capture of active PAI-1 of monkey plasma on immobilised uPA (Example 9). As for the experimental part: as §1, §2

B1: MA-33B8 (antibody, V domains shown)
VH: not shown
VL: DIVMTQSPSSLAVSVGEKVTMSCKSSQSLLNIIKQKNCLAWYQQKPGQSPKLLIYWASTRESGVPDRFTGSGSGTDFTLTISSVKAEDLAVYYCQQYYSYPYTFGGGTKLEIK
In the case of B1, the 50% effective concentration (EC50) stood at 0.0228 µg/mL in experiment [1], 0.0129 µg/mL in experiment [2], 0.64 µg/mL with latent human PAI-1 and 5.68 µg/mL in experiment [3].

B2: fully human HOT-1 (antibody, human IgG1, kappa, V domains shown)
VH: EVQLVESGGGVVRPGGSLRLSCAASGFTFDDHGMTWVRQAPGKGLEWVSGINWNGARTVYADSVKGRFTISRDNAKNSLYLHLISLRAEDTALYHCARDRGLGLFDYWGQGTLVTVSS
VL: DIQMTQSPSTLSASVGDRVTITCRASQSISSWLAWYQQKPGKVPKILIYKASRLESGVPSRISGSGSGTEFTLTISSLQPDDFATYYCQQYNGYSYTFGQGTKLEIKR
notes: Human Ig gamma1 / human kappa constant regions; also called fully human antibody of HOT-1; fully human HOT-1 antibody
As for B2, in [4], the “EC50 value, taking the activity of uPA as an indicator (cleavage of a fluorogenic uPA substrate peptide)” value was found to be 0.0127 µg/mL. For the same molecule, the EC50 in experiment [5] was found to be 0.0042 µg/mL; in experiment [6], 0.0036 µg/mL. Besides, the IC50 came out at 0.006 µg/mL in experiment [7], 0.0042 µg/mL in experiment [8] and 0.037 µg/mL in [9].

B3: HOT-1 (chimeric antibody) (antibody, V domains shown)
VH: EVQLVESGGGVVRPGGSLRLSCAASGFTFDDHGMTWVRQAPGKGLEWVSGINWNGARTVYADSVKGRFTISRDNAKNSLYLHLISLRAEDTALYHCARDRGLGLFDYWGQGTLVTVSS
VL: DIQMTQSPSTLSASVGDRVTITCRASQSISSWLAWYQQKPGKVPKILIYKASRLESGVPSRISGSGSGTEFTLTISSLQPDDFATYYCQQYNGYSYTFGQGTKLEIKR
As to B3, half-maximal inhibition in experiment [7] (IC50) was put at 0.0113 µg/mL.

B4: MA-33H1F7 (antibody, V domains shown)
VH: QVQLQQSGAEVVKPGASVKLACTASGFNIKDTYIHWVKQGPEQGLEWIGRIDPANGNTKYDSKFQDKATITADTSSNTAYLHLSSLTSEDTAVYYCVRGDYDYVYFDYWGQGTTVTVSS
VL: DIQMTQSPSSLSASLGDRVTISCRASQDISNFLDWYQQKPDGTVKLLIYYTSRLHSGVPSRFSGSGSGTDYSLTISKLEQEDIATYFCQQGNTFPPTFGGGTKLEIK
On to B4, for which the EC50 is 0.0143 µg/mL in experiment [5], 0.0117 µg/mL in experiment [1], 0.0127 µg/mL in [2] and 0.0136 µg/mL with latent human PAI-1.
